assay: soluble on expression in E. coli; label from the status in PepcDB or PDB records

**Q.** For “MGSDKIHHHHHHMEQINHQWLPHLSKEIVEDARGPEFDAYLVALEGWRRGLTLRWHTKDSEAFREIKTWFVDRPGKLFSLRLEEKTHYFFRTRGDKVTNEAVAIGADKEKTKEYLAKAGIPIPEGRRFVAEIEDDEIISYAAEIGYPLVVKPTDGSFGRGVVTNIEDEVTFAEQLRHVRHVLNYKDVIVERHVAGKDYRLYVVGDKVVAAIERIPANVVGNGKQTIQELIEAKNEERQKNPRLISCPIKLDQEMKNHLAIQGYGLDTIPEDGEMVFLTNKSNISIGGDPVDQLDSLPEEVKQLAVQALQAVPQLPHGAVDILYDDKQPVEEGAVVLELNPTAQIGSLVFPMKGIARDVPAAIIDYYFPETKGMNGQKSRFYFDFSDVLEPLVTKTASVTTVSAAPLGEVYGKKYTVTGDVQGIDYHRGLRKQAFERKLSGFVKNLENGNIEVIVMGTDPESVNDFKQAIFEDPERSDVVDVFEESWEEPVKVGFEVKADLKMQVDQLKKMKLELETVQKDLKEAERKNIKYKKSLTWRMTLPFRKTLDVLKYFKRK”, which “soluble on expression in E. coli” value is on record?
**A.** not soluble

**Q.** With “MGSDKIHHHHHHMITDENKKLAQWAMDYALKNGCQAAKVLLYSSSNTSFELRDAKMDRLQQASEGGLSLSLYVDGRYGSISTNRLNRKELETFIKNGIDSTRYLAKDEARVLADPSRYYKGGKPDLKLYDAKFASLNPDDKIEMAKAVAEEALGKDERIISVGSSYGDGEDFAYRLISNGFEGETKSTWYSLSADITIRGEGEARPSAYWYESSLYMNDLIKKGIGQKALERVLRKLGQKKVQSGKYTMVVDPMNSSRLLSPMISALNGSALQQKNSFLLNKLNEKIASDRLTLTDEPHLVKASGARYFDNEGIATERRSIFDKGVLNTYFIDTYNAKKMGVDPTISGSSILVMETGDKNLDGLIAGVEKGILVTGFNGGNNNSSTGDFSYGIEGFLIENGKLTQPVSEMNVTGNLITLWNSLVATGNDPRLNSSWRIPSLVFEGVDFSGL” as the sequence, how does the “soluble on expression in E. coli” value read?
**A.** soluble

**Q.** Which “soluble on expression in E. coli” value does the source give for “MTYRIKKWQKLSTITLLMAGVITLNGGEFRSVDKHQIAVADTNVQTPDYEKLRNTWLDVNYGYDKYDENNPDMKKKFDATEKEATNLLKEMKTESGRKYLWSGAETLETNSSHMTRTYRNIEKIAEAMRNPKTTLNTDENKKKVKDALEWLHKNAYGKEPDKKVKELSENFTKTTGKNTNLNWWDYEIGTPKSLTNTLILLNDQFSNEEKKKFTAPIKTFAPDSDKILSSVGKAELAKGGNLVDISKVKLLECIIEEDKDMMKKSIDSFNKVFTYVQDSATGKERNGFYKDGSYIDHQDVPYTGAYGVVLLEGISQMMPMIKETPFNDKTQNDTTLKSWIDDGFMPLIYKGEMMDLSRGRAISRENETSHSASATVMKSLLRLSDAMDDSTKAKYKKIVKSSVESDSSYKQNDYLNSYSDIDKMKSLMTDNSISKNGLTQQLKIYNDMDRVTYHNKDLDFAFGLSMTSKNVARYESINGENLKGWHTGAGMSYLYNSDVKHYHDNFWVTADMKRLSGTTTLDNEILKDTDDKKSSKTFVGGTKVDDQHASIGMDFENQDKTLTAKKSYFILNDKIVFLGTGIKSTDSSKNPVTTIENRKANGYTLYTDDKQTTNSDNQENNSVFLESTDTKKNIGYHFLNKPKITVKKESHTGKWKEINKSQKDTQKTDEYYEVTQKHSNSDNKYGYVLYPGLSKDVFKTKKDEVTVVKQEDDFHVVKDNESVWAGVNYSNSTQTFDINNTKVEVKAKGMFILKKKDDNTYECSFYNPESTNSASDIESKISMTGYSITNKNTSTSNESGVHFELTK” here?
**A.** not soluble

**Q.** With “MGSDKIHHHHHHMKIAIITDGSVEMGMGHVYRTLSLANELRKFNVNEIIFFTKSDEDVIKKIEENGFKVIKCSDNNDILKNIKNIKPDVVIIDDLGIEEDFAKNIRELCKKLIFFDNPNPSSNKYADIVVNAIVGSELKNRKYFDEENKTLYFYGPKYLILRNEFYKVKKEMLSRSKNKETKNILIAFGGSDPSNLTCKVLEELLSKDRDFNINVVLGPKFQYEDELNNLLKRYSKSDKIKIYKNIDNMAELMKDNDLIITSPGMTMFEALFLGIPVVVLYQNELQRECYDDYLKKISKTHLNPLKEGYFIDAEHTDLHIGKGKFEIIEAITNIYNCKKIGEDSKIIIRQITDNDLELLMAWRSNPLIYKFFYIQKEPLKWEEHYSWWMSRENRVDWIILLRENNTIRKVGSVNVSQLNTDNPEIGILIGEFFLWGKHIGRHSVSLVLKWLKNIGYKKAHARILENNIRSIKLFESLGFKKTKKGRENEWIYEVNL” as the sequence, how does the “soluble on expression in E. coli” value read?
**A.** not soluble

**Q.** Which “soluble on expression in E. coli” value does the source give for “MGSDKIHHHHHHMFNLTKAFLKEVPTNAEVTDFHEVHGGDINKAYSLTDAQGGRYFLKVQPNSVLAFFQHEADGLKLLGQAARVPKVIALGHVGQDQWLLLEYLNATNYGNQYSLGQDLAKIHSITSPNGQFGFDKDFKAGKTSKINTWQSSWYEFFVKQRLNVLRELLINEGKWNDDQNYKKAIEIFQSLMEKHDSRPSLLHGDFWSGNFMFDADSGQPIFIDPDVYYGDPEFDIGITTVFGGFNQDFYVGYQSTKPFQSGAERRLMFYQLYYLMVHAHLFAGSYIQAYRGKLAQIIQQ” here?
**A.** not soluble

**Q.** For “MSLIRMALAAVCALLFSITTMTPFVQASEITISGSTSVARIMDVLAEKYNQQHPETYVAVQGVGSTAGISLLKKGVADIAMTSRYLTESEAQNTLHTFTLAFDGLAIVVNQANPVTNLTREQLYGIYKGQITNWKQVGGNDQKIAVVTREASSGTRYSFESLMGLTKTVKDREVSDVAPTALVVNSNSMMKTLVNHNTQAVGFISIGSVDKSVKAIQFEKADPTSDNIAKHTYQLSRPFLILHYSDNADEQTKEFIAFLKSESAKKLIVEYGYIMPSDVEEGGSHHHHHH”, which “soluble on expression in E. coli” value is on record?
**A.** soluble

**Q.** With “MGSDKIHHHHHHMGACQPNNSQLYIGIDGGGSKCRATIYTAEHQKLGTGVAGRANPLHGLEQTFLSITESTQLAIADAGLAPSTSQQLIAGIGLAGVNVSHYYQHIVNWQHPFKAMYLTTDLHTACIGAHNGEDGAVIITGTGSCGYAHVGDNTICLGGHGFALGDKGSGAWLGLKAVEHVLLALDGFACATSLTERLLSHFNALDAMGIVEQLAGQSSSAYAKLARSVLACAQEGDAVAISIVKEGAEYICKLARKLFAVNPSRFSMIGGLVEPLYPWLDEDVAKRISPALTPPEFGAFLFARKQFNTKA” as the sequence, how does the “soluble on expression in E. coli” value read?
**A.** not soluble

**Q.** With “MMNTKVALKQLMATHFITVDVPCPECGGAMTAWKEPTPDTPPRCPPVCMECGYRSVKKKEATTAKNLYESSLIKKAKDYFLNGSVLTDRKSLHKKISNYYPSNQESTKAKNISMEFCEKTLLGEIHHLILTGGVGVGKSHLAIGCLNEILVKSNYSKKVLFVSYRELLEQLKFAMNDEEARKAITGVAMSEIKAADVVVLDDIGAELGDFNKRDEKGNLILSRASNFDIDTLTGILESRIDKPTIITSNLKSKEIKYCYGERIVSRMATHSNGFMHRFTNTKDYRLKTALEHHHHHH” as the sequence, how does the “soluble on expression in E. coli” value read?
**A.** soluble

**Q.** With “DDAENIEYKVSISGTSVELTCPLDSDENLKWEKNGQELPQKHDKHLVLQDFSEVEDSGYYVCYTPASNKNTYLYLKARVGSADDAKKDAAKKDDAKKDDAKKDGSQTNKAKRALEVLEAEDKVILKCNSSITLLQGTAGQEVSDNKTLNLGKRIEDPRGMYQCGENAKSFTLQVYYRM” as the sequence, how does the “soluble on expression in E. coli” value read?
**A.** soluble

**Q.** For “MEIQHLDGHIVKVQRDKVTWPGARLRKKDEGMPSLEDNNKKGMLVVTFDVEFPKTELSDEQKAQIIEILQQNTVKPKAYNGL”, which “soluble on expression in E. coli” value is on record?
**A.** not soluble

**Q.** Which “soluble on expression in E. coli” value does the source give for “MTQEAIFKAIREREMKVLNIQVTSSCNYACGMCPFHGDGYSGEYFDERPTIRRDMSLDEIKLILEKASMEGFEWIDLTPNGEFFTHKQWYQILSLIKEFGLKIMITSNGGLLGEEDIKRACEVGVDHIVISVDSLSYESYKKIRKPATKLAFERAIHAPLYFKKYGGDSIYVQIQITEQPEFPHEALGVLDFYKDKGLNQISLKKMFVTGEDGIGHIGVEKLEYTHGKCKAYGSPIVMTDGTVLPCCGAFYFYPKLGEKIPNIFNHTIFESARILDDLYERDSLFGSYCRNCSLYDSSRKAAPVKFIFGDYYAEQTLFETRYFILPKYLRFLPSLAILWLYKKGYARKIKQWLVAAQ” here?
**A.** not soluble

**Q.** With “LTAEEIIQYISDAKKSTPIKVYLNGNFEGITYPESFKVFGSEQSKVIFCEADDWKPFYEAYGSQFEDIEIEMDRRNSAIPLKDLTNTN” as the sequence, how does the “soluble on expression in E. coli” value read?
**A.** soluble

**Q.** Which “soluble on expression in E. coli” value does the source give for “MIFENRLALSAMAGVNNAEFCRKQKASLVILGGFNADRRALEAAEKAVKRGRKEFLFGIDGIEGEIKKLGRRKFAVNVRSSSLEGYLNVAELVAEFEGIIEINAHCRQPEFVEIGCGEWLLFNHERLVEIVSKTSRIAPTFVKIRGGHKLDYEKIARKLFDAGCLAIHVDAMIPGGGCDFSLIERISRIGNVIGNNSFVDIESGERIIMAGAKMASAARAVLRDENFFEKMLRSPLLSQPVELSCGRFRLEHHHHHH” here?
**A.** soluble

**Q.** With “MSGAGHSLNSDPVTTIATSSSEPVTSPSSASHVPVQTAPASHGAPSSVASQPPASVDGKAGAPDEARTASSASNPQGSEHPGSVDPAATTTAATTSASTTSITSTAATTTTTTTTGTTATGRVSPTIPPETLFHDAIKRCNNCLFLIRKLRNKQDHIARLFLDTSGNDQAEFNSAFQNYKDFGLMVHEVMMFYDKLDHIARHLPKALPPIDNINLMRTLYTQEHTMCHININNLLEKMIDCGNWNEGNFQTFFYLSELLRCGSTRKYSNLPEQRLVPPAMFHSQATNSHAAFEHAFNGLRKEIANKSLGIYPKVLQRTTCSLIIEFLFGCGGAKPGEKNTDKEIVYTIKFLIIERNGSIEYINIMAPTEDWHMVNDYAIPTINPFAPSRYEVYRRLTKQANIHLFNCFAQNRWTAGTLFHFISLYGKFRELFTTKCRSCKQVLSRKNFLPPLIFDIRNPNNAAHEVCR” as the sequence, how does the “soluble on expression in E. coli” value read?
**A.** not soluble

**Q.** With “MNRWEKELDKYAELAVKVGVNIQPGQTLFVNAPLEAAPLVRKIAKTAYETGAKHVYVEWNDEALTYIKFHHAPEEAFSEYPMWRARAMEELAEQGAAFLSIYAPNPDLLKDVDPKRIATANKTAAQALANYRSAIMADRNCWSLISVPTPAWAQKVFGDLRDEEAIDKLWEAIFRITRIDHDDPIAAWRKHNDRLARIVDYLNNKQYKQLVYEAPGTNLTVELVDGHVWHGGAATSQSGVRFNPNIPTEEVFTMPHKDGVNGTVRNTKPLNYNGNVIDGFTLTFKDGQVVDFSAEQGYETLKHLLDTDDGARRLGEVALVPHQSPVSLSNLIFYNTLFDENAACHLALGKAYPTNIENGASLSKEELDRRGVNDSLVHVDFMIGSADLNIDGVTKDGKREPIFRSGNWAFELS” as the sequence, how does the “soluble on expression in E. coli” value read?
**A.** not soluble

**Q.** With “MGHHHHHHSNKIERIIARLQRRIAEGQPEEQYEAAQETRLVAARYSKQGNWAAAVDILASVSQTLLRSGQGGSGGDLAVLLVDTFRQAGQRVDGASRGKLLGCLRLFQPGEPVRKRFVKEMIDWSKKFGDYPAGDPELHHVVGTLYVEEGEFEAAEKHLVLGTKESPEVLARMEYEWYKQDESHTAPLYCARAVLPYLLVANVRAANTAYRIFTSALVEDNKGLTVQNIGSQSAELRIFPSLPLLNFISMLLLSVQKGSPDLFRQLKSKYEANLNELNGIWDTALELIAEMYFGIQRPRQSNPLLDMMGSLFGGGGGAPSKAALRRIDTPAAEGLD” as the sequence, how does the “soluble on expression in E. coli” value read?
**A.** soluble

**Q.** With “MSIESSATPTTPNAEALQLNSTEVRILGCLIEKQATNPETYPLTLNALVIACNQKTSRDPVMNLTQGQVGQSLRALEGRGLTRLVMGSRADRWEHKVDKGLELVPAQVILTGLLLLRGPQTVSELLTRSNRMHDFEDSEQVVHQLERLIARGLATLVPRQSGQREDRYMHLIGDPEDLQD” as the sequence, how does the “soluble on expression in E. coli” value read?
**A.** soluble

**Q.** With “MQWSVWKMEESLDTLFSLLPDVRRVSCEQEMQRFTSDRRKLEWLSVRVLLYSMLQEDKEIGYSSEGKPHLTDNSSFISISHTKGYVAVILSSVAPVGIDIEQYGQRVKRVYDRFIRSDERVEPYQGDETWSMLLHWSAKETIFKSMENADADLRKLCLSHFIPQSEGVFQVREYATERQQLFTVGYRICPDFVLTWTVTIS” as the sequence, how does the “soluble on expression in E. coli” value read?
**A.** not soluble

**Q.** For “MSSKPLYTILTVFNPIFIYFTKRDNLHTLRFKKDRAIKISEELFPDELCERCGRCCILHAYKTEDGIKTIYCEHLDPETKLCKVYKDRFKHRCLTVMEGILAGVFPKDCPYVKNLKNYEEPWFYRHLRDLEHHHHHH”, which “soluble on expression in E. coli” value is on record?
**A.** not soluble
